Experimental data reported in patent US20120177639A1.

Assays:
[1] = biological target: low-molecular-weight oligomers of Aβ (1-42) (UniProt P05067); assay: ELISA, antigen coated at 1 µg/ml, anti-human Fc peroxidase detection
[2] = biological target: protofibrils prepared from the synthetic peptide Aβ (1-42) (UniProt P05067); assay: as above
[3] = biological target: protofibrils prepared from the synthetic peptide Aβ (1-42) (UniProt P05067); assay: ELISA; ratio of the EC50 on low-molecular-weight oligomers to the EC50 on protofibrils

| Binder | EC50 [1] [µg/mL] | EC50 [2] [µg/mL] | LMW/PF [3] |
| --- | --- | --- | --- |
| humanized antibody LP09026 (antibody, human IgG4 S228P, kappa, V domains shown) VH: EVQLQQSGPEVVKPGVSVKISCKGSGYTFTDYAMHWVKQSPGKSLEWIGVISTKYGKTNYNPSFQGQATMTVDKSSSTAYMELASLKASDSAIYYCARGDEGYSWGQGTSVTVSS VL: EIVMTQTPLSLPVSLGDRASISCRSGQSLVHSNTNTYLHWYLQKPGQSPKLLIYTVSNRFSGVPDRFSGSGSGSDFTLTISRVEAEDLGVYFCSQNTFVPWTFGGGTKLEIKR | 41.4 | 0.0587 | 705 |
| humanized anti-peptide Aβ antibody VH1VL1 (LP09027) (antibody, human IgG4 S228P, kappa, V domains shown) VH: EVQLQQSGPEVVKPGVSVKISCKGSGYTFTDYAMHWVKQSPGKSLEWIGVISTKYGKTNYNPSFQGQATMTVDKSSSTAYMELASLKASDSAIYYCARGDDGYSWGQGTSVTVSS VL: EIVMTQTPLSLPVSLGDRASISCRSGQSLVHSNGNTYLHWYLQKPGQSPKLLIYTVSNRFSGVPDRFSGSGSGSDFTLTISRVEAEDLGVYFCSQNTFVPWTFGGGTKLEIKR | 14.7 | 0.0798 | 184 |
| humanized antibody LP09028 (antibody, human IgG4 S228P, kappa, V domains shown) VH: EVQLQQSGPEVVKPGVSVKISCKGSGYTFTDYAMHWVKQSPGKSLEWIGVISTKYGKTNYNPSFQGQATMTVDKSSSTAYMELASLKASDSAIYYCARGDDGYSWGQGTSVTVSS VL: EIVMTQTPLSLPVSLGDRASISCRSGQSLVHSNTNTYLHWYLQKPGQSPKLLIYTVSNRFSGVPDRFSGSGSGSDFTLTISRVEAEDLGVYFCSQNTFVPWTFGGGTKLEIKR | 21.8 | 0.0892 | 244 |
